Data as given in patent publication US20220177583A1 (University of California, published 2022).

Key:
[1] = biological target: T1, human CLDN6, endogenously expressed on cancer cell lines (human, UniProt P56747 1-220); test: FACS, ARK2 cells, 1.5 ug Ab
T1 construct: also called Endogenous CLDN6+; CLDN6 on ARK2, OVCA429, UMUC4 cells
T1 sequence: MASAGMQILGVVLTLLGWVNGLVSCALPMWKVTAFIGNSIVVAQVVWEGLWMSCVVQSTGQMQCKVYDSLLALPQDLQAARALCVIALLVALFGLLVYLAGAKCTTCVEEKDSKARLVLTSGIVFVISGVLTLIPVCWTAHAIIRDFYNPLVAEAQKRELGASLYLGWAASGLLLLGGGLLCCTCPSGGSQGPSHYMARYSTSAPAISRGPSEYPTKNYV

[2] = biological target: T2, mouse CLDN6 fused to GFP, expressed on engineered HEK293T cells (mouse, UniProt Q9Z262 1-219); test: FACS, 293T clone with mouse CLDN6
T2 construct: whole, on cells; also called HEK293T-CLDN6-mGFP Artificial CLDN6+ (mouse); murine CLDN6; not shown: GFP tag
T2 sequence (looked up): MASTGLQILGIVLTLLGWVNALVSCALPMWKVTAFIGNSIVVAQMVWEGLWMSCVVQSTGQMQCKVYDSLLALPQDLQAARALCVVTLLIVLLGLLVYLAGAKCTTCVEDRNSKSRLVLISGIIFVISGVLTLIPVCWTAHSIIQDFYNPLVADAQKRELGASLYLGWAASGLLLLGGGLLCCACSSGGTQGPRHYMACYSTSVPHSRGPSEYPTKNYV

[3] = biological target: T1, human CLDN6, endogenously expressed on …; test: FACS, ARK2 cells, 0.3 ug Ab
[4] = biological target: T1, human CLDN6, endogenously expressed on …; test: FACS, OVCA429 cells, 1.5 ug Ab

B1: AB1-11 (antibody, V domains shown)
VH: QVQLVQSGAEVKKPGASVKMSCKASGYTFTTYTMHWVRQAPGQGLEWIGFINPSSGYTDYAQKFQGRVTLTADKSTSTVYMELSSLRSEDTAVYYCANGDYYVAYWGQGTLVTVSS
VL: DIQLTQSPSSLSASVGDRVTMTCTASSSVSSTYFHWYQQKPGKAPKLWIYSTSNLASGVPSRFSGSGSGTDYTLTISSMQPEDAATYYCHQYHRSPLTFGQGTKLEIK
notes: Humanized; also called humanized AB1-11; HU-11
FACS signal [1]: 97700 | FACS signal [2]: 101000 | FACS signal [3]: 53900

B2: AB4-6 (antibody, V domains shown)
VH: QVQLVQSGAEVKKPGASVKMSCKASGYTFTSYTMHWIRQAPGQGLEWIGYINPSSTYTHYAQKFQGRATLTADKSTSTAYMELSSLRSEDTAVYYCSRGELGGFAYWGQGTLVTVSS
VL: DVVMTQSPLSLPVTLGQPASISCRSSQSLVHSDGNTYLNWYQQRPGQSPRLLIYKVSNRFSGVPDRFSGSGSGTDFTLKISRVEAEDVGVYYCSQSTHVPYTFGQGTKLEIK
notes: Humanized; also called humanized AB 4-6
FACS signal [1]: 9840 | FACS signal [2]: 14200 | FACS signal [3]: 3300

B3: AB4-7 (antibody, V domains shown)
VH: QVQLVQSGAEVKKPGASVKMSCKASGYTFTSYTMHWIRQAPGQGQEWIGYINPSSTYTHYAQKFQGRATLTADKSTSTAYMELSSLRSEDTAVYYCSRGELGGFAYWGQGTLVTVSS
VL: DVVMTQSPLSLPVTLGQPASISCRSSQSLVHSDGNTYLNWYQQRPGQSPRLLIYKVSNRFSGVPDRFSGSGSGTDFTLKISRVEAEDVGVYYCSQSTHVPYTFGQGTKLEIK
notes: Humanized; also called humanized AB 4-7
FACS signal [1]: 7560 | FACS signal [2]: 6640 | FACS signal [3]: 2770

B4: AB4-8 (antibody, V domains shown)
VH: QVQLVQSGAEVKKPGASVKVSCKASGYTFTSYTMHWVRQAPGQGLEWMGYINPSSTYTHYIKKFKDRVTMTADTSTSTVYMELSSLRSEDTAVYYCSRGELGGFAYWGQGTLVTVSS
VL: DVVMTQSPLSLPVTLGQPASISCRSSQSLVHSDGNTYLNWYQQRPGQSPRLLIYKVSNRFSGVPDRFSGSGSGTDFTLKISRVEAEDVGVYYCSQSTHVPYTFGQGTKLEIK
notes: Humanized; full-length IgG; also called humanized AB 4-8
FACS signal [1]: 7310 | FACS signal [2]: 4700 | FACS signal [3]: 3120

B5: AB4-9 (antibody, V domains shown)
VH: QVQLVQSGAEVKKPGASVKMSCKASGYTFTSYTMHWIRQAPGQGLEWIGYINPSSTYTHYIKKFKDRATLTADTSTSTAYMELSSLRSEDTAVYYCSRGELGGFAYWGQGTLVTVSS
VL: DVVMTQSPLSLPVTLGQPASISCRSSQSLVHSDGNTYLNWYQQRPGQSPRLLIYKVSNRFSGVPDRFSGSGSGTDFTLKISRVEAEDVGVYYCSQSTHVPYTFGQGTKLEIK
notes: Humanized; full-length IgG; see note of AB4-8; also called humanized AB 4-9
FACS signal [1]: 7790 | FACS signal [2]: 1780 | FACS signal [3]: 3060

B6: AB4-10 (antibody, V domains shown)
VH: QVQLVQSGAEVKKPGASVKMSCKASGYTFTSYTMHWIRQAPGQGQEWIGYINPSSTYTHYIKKFKDRATLTADTSTSTAYMELSSLRSEDTAVYYCSRGELGGFAYWGQGTLVTVSS
VL: DVVMTQSPLSLPVTLGQPASISCRSSQSLVHSDGNTYLNWYQQRPGQSPRLLIYKVSNRFSGVPDRFSGSGSGTDFTLKISRVEAEDVGVYYCSQSTHVPYTFGQGTKLEIK
notes: Humanized; full-length IgG; see note of AB4-8; also called humanized AB 4-10
FACS signal [1]: 20200 | FACS signal [2]: 2650 | FACS signal [3]: 7210

B7: AB4-11 (antibody, V domains shown)
VH: QVQLVQSGAEVKKPGASVKMSCKASGYTFTSYTMHWIRQAPGQGLEWIGYINPSSTYTHYIKKFKDRATLTADKSTSTAYMELSSLRSEDTAVYYCSRGELGGFAYWGQGTLVTVSS
VL: DVVMTQSPLSLPVTLGQPASISCRSSQSLVHSDGNTYLNWYQQRPGQSPRLLIYKVSNRFSGVPDRFSGSGSGTDFTLKISRVEAEDVGVYYCSQSTHVPYTFGQGTKLEIK
notes: Humanized; full-length IgG; see note of AB4-8; also called humanized AB 4-11
FACS signal [1]: 9170 | FACS signal [2]: 1230 | FACS signal [3]: 6390

B8: AB4-12 (antibody, V domains shown)
VH: QVQLVQSGAEVKKPGASVKMSCKASGYTFTSYTMHWIRQAPGQGQEWIGYINPSSTYTHYIKKFKDRATLTADKSTSTAYMELSSLRSEDTAVYYCSRGELGGFAYWGQGTLVTVSS
VL: DVVMTQSPLSLPVTLGQPASISCRSSQSLVHSDGNTYLNWYQQRPGQSPRLLIYKVSNRFSGVPDRFSGSGSGTDFTLKISRVEAEDVGVYYCSQSTHVPYTFGQGTKLEIK
notes: Humanized; full-length IgG; see note of AB4-8; also called humanized AB 4-12
FACS signal [1]: 24200 | FACS signal [2]: 1130 | FACS signal [3]: 9690

B9: AB9-3 (antibody, V domains shown)
VH: QVQLVQSGAEVKKPGASVKMSCKASGYRFTDYNMHWVRQAPGQGLEWIGYINPNNGGTNYAQKFQGRATLTVDTSTSTAYMELSSLRSEDTAVYYCARDYLYFFDCWGQGTLLTVSS
VL: DIQMTQSPSSLSASVGDRVTITCLASQTIGTWLAWYQQKPGKAPKLLIYAAASLADGVPSRFSGSGSGTDFTFTISSLQPEDFVTYYCQQLYSIPRTFGQGTKLEIK
notes: Humanized; also called humanized AB 9-3
FACS signal [1]: 1470 | FACS signal [4]: 1260 | FACS signal [3]: 1140

B10: AB4-chim (antibody, V domains shown)
VH: QVQLQQSGAELARPGASVKMSCKASGYTFTSYTMHWIKQRPGQGQEWIGYINPSSTYTHYIKKFKDKATLTADKSSSTAYMQLRSLTSEDSAVYYCSRGELGGFAYWGQGTLVTVSA
VL: DVVMTQTPLSLPVSLGDQASISCRSSQSLVHSDGNTYLNWYLQKPGQSPKLLIYKVSNRFSGVPDRFSGSGSGTDFTLKIRRVEAEDLGVYFCSQSTHVPYTFGGGTKLEIK
notes: Parental antibody prior to humanization ('chim'); also called pre-humanized form of AB4
FACS signal [1]: 38400 | FACS signal [4]: 64800 | FACS signal [3]: 19100

B11: AB18-chim (antibody, V domains shown)
VH: QVQLKQSGPELEKPGASVKISCKASGYSFTGYNMNWVKQSNGKSLEWIGNIDPYYGGSTYNQKFTGKATLTVDKSSSTAYMQLKSLTSEDSAVYYCARERSGYVFSAMDYWGQGTSVTVSS
VL: NIMMTQSPSSLAVSAGEKVTMSCKSSQSVLFSSNQKNYLAWYQQKPGQSPRLLIYWASTRESGVPDRFTGSGSGTDFTLTISNVQAEDLAVYYCHQYLSSRTFGAGTKLELK
notes: Parental antibody prior to humanization ('chim'); also called pre-humanized form of AB18
FACS signal [1]: 9150 | FACS signal [4]: 25500 | FACS signal [3]: 3440

B12: AB18-3 (antibody, V domains shown)
VH: QVQLVQSGAEVKKPGASVKVSCKASGYSFTGYNMNWVRQAPGQGLEWMGNIDPYYGGSTYAQKFQGRVTMTVDTSTSTVYMELSSLRSEDTAVYYCARERSGYVFSAMDYWGQGTLVTVSS
VL: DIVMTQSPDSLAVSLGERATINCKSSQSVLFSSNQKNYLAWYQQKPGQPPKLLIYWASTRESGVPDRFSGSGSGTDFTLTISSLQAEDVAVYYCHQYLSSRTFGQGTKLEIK
notes: Humanized; full-length IgG; also called humanized AB 18-3
FACS signal [1]: 1210 | FACS signal [4]: 2700 | FACS signal [3]: 1080

B13: AB18-4 (antibody, V domains shown)
VH: QVQLVQSGAEVKKPGASVKVSCKASGYSFTGYNMNWVRQAPGQGLEWMGNIDPYYGGSTYAQKFQGRVTMTVDTSTSTVYMELSSLRSEDTAVYYCARERSGYVFSAMDYWGQGTLVTVSS
VL: DIVMTQSPDSLAVSLGERVTMNCKSSQSVLFSSNQKNYLAWYQQKPGQPPKLLIYWASTRESGVPDRFSGSGSGTDFTLTISSVQAEDVAVYYCHQYLSSRTFGQGTKLEIK
notes: Humanized; also called humanized AB 18-4
FACS signal [1]: 1380 | FACS signal [4]: 3220 | FACS signal [3]: 1130

B14: AB18-5 (antibody, V domains shown)
VH: QVQLVQSGAEVKKPGASVKISCKASGYSFTGYNMNWVRQAPGQGLEWIGNIDPYYGGSTYAQKFQGRATLTVDTSTSTAYMELSSLRSEDTAVYYCARERSGYVFSAMDYWGQGTLVTVSS
VL: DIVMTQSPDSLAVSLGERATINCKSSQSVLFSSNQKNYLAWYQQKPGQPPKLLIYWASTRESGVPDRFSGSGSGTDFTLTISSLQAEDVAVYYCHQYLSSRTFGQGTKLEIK
notes: Humanized; also called humanized AB 18-5
FACS signal [1]: 1330 | FACS signal [4]: 4270 | FACS signal [3]: 1310
